In this assay the target is coagulation Factor VIII (human) (UniProt P00451). Put plainly: VWF:FVIIIB enzyme immunoassay; VWF of human plasma captured with rabbit anti-human VWF F(ab')2, bound FVIII detected; plasma pre-incubated 17 h at 37°C with 200 or 600 nM one-arm anti-VWF CK domain antibodies.
Chain of UniProt P00451 (P00451 20-2351): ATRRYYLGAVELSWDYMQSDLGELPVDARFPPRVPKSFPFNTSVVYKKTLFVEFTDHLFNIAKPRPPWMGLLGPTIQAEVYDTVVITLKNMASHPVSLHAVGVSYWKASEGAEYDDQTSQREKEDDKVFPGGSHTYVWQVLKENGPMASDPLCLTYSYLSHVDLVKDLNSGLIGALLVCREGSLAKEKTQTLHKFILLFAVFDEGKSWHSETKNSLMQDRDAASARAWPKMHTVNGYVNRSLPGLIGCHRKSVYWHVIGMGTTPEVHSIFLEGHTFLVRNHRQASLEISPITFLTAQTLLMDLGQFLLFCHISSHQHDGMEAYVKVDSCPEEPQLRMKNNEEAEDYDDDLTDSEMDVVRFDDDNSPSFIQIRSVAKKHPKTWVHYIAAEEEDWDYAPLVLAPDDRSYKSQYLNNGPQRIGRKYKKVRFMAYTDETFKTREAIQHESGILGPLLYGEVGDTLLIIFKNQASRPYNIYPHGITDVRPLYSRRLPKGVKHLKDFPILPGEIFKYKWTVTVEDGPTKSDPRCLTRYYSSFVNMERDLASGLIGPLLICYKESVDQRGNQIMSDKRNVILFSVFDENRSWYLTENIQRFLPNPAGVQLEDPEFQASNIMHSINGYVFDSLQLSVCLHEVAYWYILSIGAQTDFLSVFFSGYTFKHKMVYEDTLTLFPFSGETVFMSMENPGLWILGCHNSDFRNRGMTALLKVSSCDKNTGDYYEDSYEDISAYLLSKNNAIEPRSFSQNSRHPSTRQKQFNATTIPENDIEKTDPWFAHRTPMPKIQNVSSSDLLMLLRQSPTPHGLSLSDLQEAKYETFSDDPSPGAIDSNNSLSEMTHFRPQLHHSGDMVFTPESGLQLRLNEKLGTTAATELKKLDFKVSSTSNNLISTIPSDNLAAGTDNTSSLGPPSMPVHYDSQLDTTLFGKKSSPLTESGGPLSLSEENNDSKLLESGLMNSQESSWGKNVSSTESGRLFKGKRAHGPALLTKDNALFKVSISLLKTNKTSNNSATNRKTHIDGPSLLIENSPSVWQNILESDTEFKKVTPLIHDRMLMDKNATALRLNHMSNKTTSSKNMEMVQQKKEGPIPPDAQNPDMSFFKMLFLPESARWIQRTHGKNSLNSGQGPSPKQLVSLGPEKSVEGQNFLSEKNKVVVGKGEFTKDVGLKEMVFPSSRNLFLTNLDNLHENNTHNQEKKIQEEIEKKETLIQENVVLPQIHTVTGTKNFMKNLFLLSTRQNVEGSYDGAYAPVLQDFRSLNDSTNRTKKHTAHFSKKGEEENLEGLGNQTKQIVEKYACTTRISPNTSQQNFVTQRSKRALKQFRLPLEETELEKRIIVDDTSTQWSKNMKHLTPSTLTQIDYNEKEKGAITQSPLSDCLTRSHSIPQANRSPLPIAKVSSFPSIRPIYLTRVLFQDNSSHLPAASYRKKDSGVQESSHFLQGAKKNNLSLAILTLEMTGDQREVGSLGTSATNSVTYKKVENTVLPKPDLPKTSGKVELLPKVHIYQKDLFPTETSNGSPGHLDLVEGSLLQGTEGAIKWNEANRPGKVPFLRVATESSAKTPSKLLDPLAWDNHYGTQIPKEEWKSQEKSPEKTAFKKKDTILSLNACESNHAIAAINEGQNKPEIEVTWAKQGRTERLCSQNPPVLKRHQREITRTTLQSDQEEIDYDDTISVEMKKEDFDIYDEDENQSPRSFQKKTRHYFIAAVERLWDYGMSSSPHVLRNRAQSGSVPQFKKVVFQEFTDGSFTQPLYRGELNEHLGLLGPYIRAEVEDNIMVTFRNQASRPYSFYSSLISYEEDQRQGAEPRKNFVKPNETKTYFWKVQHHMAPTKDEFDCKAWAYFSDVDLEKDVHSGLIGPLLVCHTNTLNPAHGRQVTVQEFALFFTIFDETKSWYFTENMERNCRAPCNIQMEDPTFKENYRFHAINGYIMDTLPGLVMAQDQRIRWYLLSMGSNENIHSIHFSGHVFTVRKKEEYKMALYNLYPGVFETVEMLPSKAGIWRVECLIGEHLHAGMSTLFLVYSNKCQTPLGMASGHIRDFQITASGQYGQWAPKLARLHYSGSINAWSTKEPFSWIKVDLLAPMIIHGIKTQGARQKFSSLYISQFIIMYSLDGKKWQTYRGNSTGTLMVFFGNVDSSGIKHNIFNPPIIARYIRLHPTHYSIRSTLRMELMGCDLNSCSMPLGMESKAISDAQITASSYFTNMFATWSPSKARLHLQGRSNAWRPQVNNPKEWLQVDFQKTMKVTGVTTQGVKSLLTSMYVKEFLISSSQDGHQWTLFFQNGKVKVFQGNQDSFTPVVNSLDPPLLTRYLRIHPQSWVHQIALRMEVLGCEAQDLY

For “human plasma-derived VWF (from UniProt P04275 764-2813)”, the mean level of VWF:FVIII relative to untreated donor-matched plasma is greater than 80%.

For the origin of these results see patent publication WO2025037032A1.
